# Laboratory results from patent US20230090247A1, “MOLECULES TARGETING RAS PROTEIN” (AELIN THERAPEUTICS, priority 2020, published 2023).
# Square brackets hold non-standard residues; d marks the D form. Peptide text beside a SMILES is read from it. Dap = NC[C@H](N)C(=O)O
# B1: pept-in 04-015-N001 (peptide)
# peptide: Ac-KVVVGAVGKGSKVVVGAVGK-NH2
# B2: pept-in 04-006-N001 (peptide)
# peptide: Ac-KVVVGAVKGSKVVVGAVK-NH2
# B3: pept-in 04-014-N001 (peptide)
# peptide: Ac-KLVVVGAVKGSKLVVVGAVK-NH2
# B4: pept-in 04-033-N001 (peptide)
# peptide: Ac-KVVVGAVGVGKGSKVVVGAVGVGK-NH2
# B5: pept-in 04-004-N001 (peptide)
# peptide: Ac-KLSVFAIKGSKLSVFAIK-NH2
# B6: pept-in 04-015-N064 (peptide)
# peptide: Ac-KVVVGAVGKFFKVVVGAVGK-NH2
# B7: pept-in 04-006-N044 (peptide)
# peptide: Ac-AVVVGAVKGSKVVVGAVK-NH2
# B8: pept-in 04-006-N059 (peptide)
# peptide: Ac-KVVVGAVKGSKVVVGAVA-NH2
# B9: pept-in 04-006-N082 (peptide)
# peptide: Ac-AVVVGAVAGSKVVVGAVK-NH2
# B10: pept-in 04-006-N052 (peptide)
# peptide: Ac-KVVVGAVKGAKVVVGAVK-NH2
# B11: pept-in 04-006-N051 (peptide)
# peptide: Ac-KVVVGAVKASKVVVGAVK-NH2
# B12: pept-in 04-004-N016 (peptide)
# peptide: Ac-KLSVFAIKKLSVFAIK-NH2
# B13: pept-in 04-006-N053 (peptide)
# peptide: Ac-KVVVGAVKGSAVVVGAVK-NH2
# B14: pept-in 04-033-N007 (peptide)
# peptide: Ac-KVVVGAVGVGKKVVVGAVGVGK-NH2
# B15: pept-in 04-006-N066 (peptide)
# peptide: Ac-KVVVGAVAGSKVVVGAVA-NH2
# B16: pept-in 04-006-N060 (peptide)
# peptide: Ac-AVVVGAVKGSAVVVGAVK-NH2
# B17: pept-in 04-006-N050 (peptide)
# peptide: Ac-KVVVGAVAGSKVVVGAVK-NH2
# B18: pept-in 04-015-N063 (peptide)
# peptide: Ac-KVVVGAVGKGFKVVVGAVGK-NH2
# Tested on: NCI-H441 lung adenocarcinoma cells (suspension spheroid cultures)
# Assay: not given
# Type: cell-based, human
# Conditions: not given
row,Molecule,IC50
1,Ac-KVVVGAVAGSKVVVGAVK-NH2 [04-006-N050],5.7 µM
2,Ac-KVVVGAVKGAKVVVGAVK-NH2 [04-006-N052],30.6 µM
3,Ac-AVVVGAVKGSAVVVGAVK-NH2 [04-006-N060],31.7 µM
4,Ac-KVVVGAVKASKVVVGAVK-NH2 [04-006-N051],10.4 µM
5,Ac-AVVVGAVAGSKVVVGAVK-NH2 [04-006-N082],18.2 µM
6,Ac-AVVVGAVKGSKVVVGAVK-NH2 [04-006-N044],5.3 µM
7,Ac-KLSVFAIKKLSVFAIK-NH2 [04-004-N016],45.9 µM
8,Ac-KVVVGAVGVGKKVVVGAVGVGK-NH2 [04-033-N007],13.1 µM
9,CC(=O)N[C@@H](CCCCN)C(=O)N[C@H](C(=O)N[C@H](C(=O)N[C@H](C(=O)NCC(=O)N[C@@H](C)C(=O)N[C@H](C(=O)N[C@@H](CCCCN)C(=O)NCC(=O)N[C@@H](CO)C(=O)N[C@@H](C)C(=O)N[C@H](C(=O)N[C@H](C(=O)N[C@H](C(=O)NCC(=O)N[C@@H](C)C(=O)N[C@H](C(=O)N[C@@H](CCCCN)C(N)=O)C(C)C)C(C)C)C(C)C)C(C)C)C(C)C)C(C)C)C(C)C)C(C)C [04-006-N053],21.6 µM
10,CC(=O)N[C@@H](CN)C(=O)N[C@H](C(=O)N[C@H](C(=O)N[C@H](C(=O)NCC(=O)N[C@@H](C)C(=O)N[C@H](C(=O)NCC(=O)N[C@H](C(=O)NCC(=O)N[C@@H](CCCCN)C(=O)NCC(=O)N[C@@H](CO)C(=O)N[C@@H](CCCCN)C(=O)N[C@@H](Cc1c[nH]c2ccccc12)C(=O)N[C@H](C(=O)NCC(=O)N[C@@H](C)C(=O)N[C@H](C(=O)NCC(=O)N[C@H](C(=O)NCC(=O)N[C@@H](CN)C(N)=O)C(C)C)C(C)C)C(C)C)C(C)C)C(C)C)C(C)C)C(C)C)C(C)C [04-033-N022] (Ac-[Dap]VVVGAVGVGKGSKWVGAVGVG[Dap]-NH2),5 µM
11,Ac-KVVVGAVGKFFKVVVGAVGK-NH2 [04-015-N064],48.9 µM
12,CC(=O)N[C@@H](CCCCN)C(=O)N[C@H](C(=O)N[C@H](C(=O)N[C@H](C(=O)NCC(=O)N[C@@H](C)C(=O)N[C@H](C(=O)NCC(=O)N[C@@H](CCCCN)C(=O)NCC(=O)N[C@@H](Cc1ccccc1)C(=O)N[C@@H](CCCCN)C(=O)N[C@H](C(=O)N[C@H](C(=O)N[C@H](C(=O)NCC(=O)N[C@@H](C)C(=O)N[C@H](C(=O)NCC(=O)N[C@@H](CCCCN)C(N)=O)C(C)C)C(C)C)C(C)C)C(C)C)C(C)C)C(C)C)C(C)C)C(C)C [04-015-N063],38.7 µM

# Same assay, conditions: 25 μM, 5 days of exposure
row,Molecule,activity in the spheroid setting
1,Ac-KLVVVGAVKGSKLVVVGAVK-NH2 [04-014-N001],did not display activity

# Biological target: T1, KRAS G12V (human, UniProt P01116-2 1-188, limits assumed)
# Assay: cell-based or functional assay
# Conditions: not given
row,Molecule,Normalised viability NCI-H441 4 days of exposure to 25 µM (%)
1,B1,23.3%
2,B2,8.7%
3,B3,9.1%
4,B4,5.2%
5,B5,6.1%

# Biological target: T1, KRAS G12V
# Assay: cell-based or functional assay
# Conditions: not given
# Remark: another data set of the same source
Molecule,"IC50 on viability of adherent NCI-H441 cells, CellTiter Glo, 3 days","decrease in viability of NCI-H441 suspension spheroids, 25 µM, 5 days, CellTiter Glo 3D"
B1,~10 µM,≥ 75%
B2,~10 µM,≥ 75%
B3,~10 µM,–
B4,~10 µM,≥ 75%
B5,~10 µM,75%

# Tested on: SW620 xenograft of human KRAS G12V mutant colorectal cancer
# Assay: In vivo SW620 xenograft model
# Set-up: species or system Female NCr nu/nu mice
# Conditions: 20 μg intratumoral injection three times per week
# Method: FIG. 12 illustrates that RAS-targeting pept-ins reduce tumor growth in a xenograft model of KRAS G12V mutant cancer. […] Pept-ins were dosed 3 times per week by intratumoral injection at either 20 or 200 μg once the tumors reached 100-150 mm^3. Model response was monitored by a positive control group receiving Irinotecan at 100 mg/kg, once per week for 3 weeks. Group sizes were N=6 for the non-treated group, N=5 for the vehicle groups and N=8 for the pept-in and positive control groups. Graphs show box plots of tumor volumes at day 22 after treatment started.
# Female NCr nu/nu mice (8 to 12 weeks) were inoculated with 1×10^6 SW620 tumor cells in 50% Matrigel subcutaneously in the hind flank. The cell Injection Volume was 0.1 mL/mouse. When tumors reached an average size of 100-150 mm^3 a pair match was performed, and treatment started. Group sizes were N=6 for the non-treated group, N=5 for the vehicle groups and N=8 for the pept-in and positive control groups. Tumor growth was monitored by caliper measurement twice per week. Model response was monitored by Irinotecan dosed once per week at 100 mg/kg intraperitoneally for 3 weeks.
# To assess whether the RAS-targeting pept-ins are able to attenuate growth of KRAS G12V-driven tumors in vivo, a subcutaneous xenograft model of human KRAS G12V colorectal cancer (SW620) was used. Once the tumors reached 100-150 mm^3 in size, pept-ins were administered directly into the tumor mass by intratumoral injection three times per week during two weeks at two different doses (20 μg and 200 μg).
row,Molecule,average tumor volume at day 22 after treatment started
1,CC(=O)N[C@@H](CCCCN)C(=O)N[C@H](C(=O)N[C@H](C(=O)N[C@H](C(=O)NCC(=O)N[C@@H](C)C(=O)N[C@H](C(=O)NCC(=O)N[C@@H](CCCCN)C(=O)NCC(=O)N[C@@H](CO)C(=O)N[C@@H](CCCCN)C(=O)N[C@H](C(=O)N[C@H](C(=O)N[C@H](C(=O)NCC(=O)N[C@@H](C)C(=O)N[C@H](C(=O)NCC(=O)N[C@@H](CCCCN)C(N)=O)C(C)C)C(C)C)C(C)C)C(C)C)C(C)C)C(C)C)C(C)C)C(C)C [04-015-N001],significant reduction

# Same assay, conditions: 200 μg intratumoral injection three times per week
row,Molecule,average tumor volume at day 22 after treatment started
1,CC(=O)N[C@@H](CCCCN)C(=O)N[C@H](C(=O)N[C@H](C(=O)N[C@H](C(=O)NCC(=O)N[C@@H](C)C(=O)N[C@H](C(=O)NCC(=O)N[C@@H](CCCCN)C(=O)NCC(=O)N[C@@H](CO)C(=O)N[C@@H](CCCCN)C(=O)N[C@H](C(=O)N[C@H](C(=O)N[C@H](C(=O)NCC(=O)N[C@@H](C)C(=O)N[C@H](C(=O)NCC(=O)N[C@@H](CCCCN)C(N)=O)C(C)C)C(C)C)C(C)C)C(C)C)C(C)C)C(C)C)C(C)C)C(C)C [04-015-N001],significant reduction

# Same assay, conditions: intratumoral, 20 μg and 200 μg
row,Molecule,reduction in tumor growth (comparison between pept-ins)
1,CC(=O)N[C@@H](CCCCN)C(=O)N[C@H](C(=O)N[C@H](C(=O)N[C@H](C(=O)NCC(=O)N[C@@H](C)C(=O)N[C@H](C(=O)NCC(=O)N[C@@H](CCCCN)C(=O)NCC(=O)N[C@@H](CO)C(=O)N[C@@H](CCCCN)C(=O)N[C@H](C(=O)N[C@H](C(=O)N[C@H](C(=O)NCC(=O)N[C@@H](C)C(=O)N[C@H](C(=O)NCC(=O)N[C@@H](CCCCN)C(N)=O)C(C)C)C(C)C)C(C)C)C(C)C)C(C)C)C(C)C)C(C)C)C(C)C [04-015-N001],strongest reduction in tumor growth

# Biological target: T1, KRAS G12V
# Assay: cell-based or functional assay
# Conditions: not given
# Remark: another data set of the same source
row,Molecule,"IC50 on cell viability, NCI-H441 suspension spheroids, CellTiter Glo 3D, 5 days"
1,B6,48.9 µM
2,B7,5.3 µM
3,B8,15.7 µM
4,B9,18.2 µM
5,B10,30.6 µM
6,B11,10.4 µM
7,B12,45.9 µM
8,B13,21.6 µM
9,B14,13.1 µM
10,B15,25.3 µM
11,B16,31.7 µM
12,B17,5.7 µM
13,B18,38.7 µM
